Measured values as given in PMC6555819, “Comprehensive study of nuclear receptor DNA binding provides a revised framework for understanding receptor specificity”.
Positions count from the first letter of the chain named.

Legend:
[1] = target: PXR:RXRa (Homo sapiens, UniProt O75469;P19793 full;full); assay: no ligand; PBM; 270 nM : 90 nM RXRa; PBS pH 7.4, 2% milk, 0.02% Triton X-100, 1 mM DTT, BSA, 0.4 mg/ml salmon testes DNA; settings: tags: His kept;His cleaved; copies: 1;1; label: surface-attached array probe
Method in brief: (§1)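 Probes were double-stranded and carried 34-nt variable regions with direct-repeat seeds, single-nucleotide variants, half-site ablations and random human genomic background sequences, printed on custom Agilent 4×180K protein-binding microarrays. Arrays were incubated 1 h with ligand-free nuclear receptor dimers in PBS pH 7.4, 2% milk, 0.02% Triton X-100, 1 mM DTT, 0.2 mg/mL BSA and 0.4 mg/ml salmon testes DNA. Antibodies against each partner (one per run) detected binding, and scanned fluorescence was regression-normalized. Binding z-scores use the random background probes as reference.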

[2] = target: RARg:RXRa (Homo sapiens, UniProt P13631;P19793 full;full); assay: as above; settings: tags: His kept;His cleaved; copies: 1;1; label: surface-attached array probe
Method in brief: as §1

[3] = target: VDR:RXRa (Homo sapiens, UniProt P11473;P19793 full;full); assay: as above; settings: tags: His kept;His cleaved; copies: 1;1; label: surface-attached array probe
Method in brief: as §1

[4] = target: PPARa:RXRa (Homo sapiens, UniProt Q07869;P19793 full;full); assay: as above; settings: tags: GST kept;His cleaved; copies: 1;1; label: surface-attached array probe
Method in brief: as §1

[5] = target: RXRa (Homo sapiens, UniProt P19793); assay: no ligand; PBM; 180 nM; PBS pH 7.4, 2% milk, 0.02% Triton X-100, 1 mM DTT, BSA, 0.4 mg/ml salmon testes DNA; settings: tags: His cleaved; chain copies: 2; label: surface-attached array probe
[6] = target: RARb:RXRa (Homo sapiens, UniProt P10826;P19793 full;full); assay: no ligand; PBM; 270 nM : 90 nM RXRa; PBS pH 7.4, 2% milk, 0.02% Triton X-100, 1 mM DTT, BSA, 0.4 mg/ml salmon testes DNA; settings: tags: His kept;His cleaved; copies: 1;1; label: surface-attached array probe
Method in brief: as §1

[7] = target: FXR:RXRa (Homo sapiens, UniProt Q96RI1;P19793 full;full); assay: as above; settings: tags: His kept;His cleaved; copies: 1;1; label: surface-attached array probe
Method in brief: as §1

Sequence of RARb:RXRa (P10826 whole entry, chain 1 of 2): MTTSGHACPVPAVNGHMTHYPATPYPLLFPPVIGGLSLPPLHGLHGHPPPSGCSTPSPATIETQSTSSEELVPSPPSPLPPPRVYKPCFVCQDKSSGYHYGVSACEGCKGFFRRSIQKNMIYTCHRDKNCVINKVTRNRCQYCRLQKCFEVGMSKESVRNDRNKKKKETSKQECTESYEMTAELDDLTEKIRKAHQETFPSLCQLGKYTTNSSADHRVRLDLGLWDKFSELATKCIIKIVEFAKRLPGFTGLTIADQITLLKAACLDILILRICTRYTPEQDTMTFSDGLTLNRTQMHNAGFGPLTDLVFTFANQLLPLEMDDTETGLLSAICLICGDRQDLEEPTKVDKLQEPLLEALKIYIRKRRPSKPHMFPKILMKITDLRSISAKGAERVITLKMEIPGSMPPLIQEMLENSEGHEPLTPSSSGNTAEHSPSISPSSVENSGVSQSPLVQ
Sequence of RARb:RXRa (P19793 whole entry, chain 2 of 2): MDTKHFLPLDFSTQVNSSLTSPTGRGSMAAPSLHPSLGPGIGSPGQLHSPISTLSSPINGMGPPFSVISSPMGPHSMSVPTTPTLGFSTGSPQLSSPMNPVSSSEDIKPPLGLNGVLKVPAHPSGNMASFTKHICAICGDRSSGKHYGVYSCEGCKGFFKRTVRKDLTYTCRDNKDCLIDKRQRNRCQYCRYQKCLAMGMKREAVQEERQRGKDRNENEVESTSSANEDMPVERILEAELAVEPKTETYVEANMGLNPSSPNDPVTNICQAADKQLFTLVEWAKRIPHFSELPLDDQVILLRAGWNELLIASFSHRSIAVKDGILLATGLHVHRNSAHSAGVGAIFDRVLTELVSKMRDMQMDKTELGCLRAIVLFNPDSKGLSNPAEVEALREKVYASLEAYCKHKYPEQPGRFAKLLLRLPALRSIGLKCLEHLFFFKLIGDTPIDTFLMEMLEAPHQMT
Sequence of RARg:RXRa (P13631 whole entry, chain 1 of 2): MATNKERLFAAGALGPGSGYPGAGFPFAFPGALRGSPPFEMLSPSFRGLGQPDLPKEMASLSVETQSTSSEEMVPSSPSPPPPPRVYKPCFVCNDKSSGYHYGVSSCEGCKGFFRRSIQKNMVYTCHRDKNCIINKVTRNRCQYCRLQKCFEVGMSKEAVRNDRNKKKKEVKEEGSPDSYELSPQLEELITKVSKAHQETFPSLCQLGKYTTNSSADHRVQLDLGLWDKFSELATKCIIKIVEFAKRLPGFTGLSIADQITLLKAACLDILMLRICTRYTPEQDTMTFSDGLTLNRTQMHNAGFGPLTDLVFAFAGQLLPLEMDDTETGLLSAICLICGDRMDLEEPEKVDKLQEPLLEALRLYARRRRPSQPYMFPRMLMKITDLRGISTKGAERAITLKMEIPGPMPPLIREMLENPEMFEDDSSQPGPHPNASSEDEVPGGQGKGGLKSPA
Sequence of RARg:RXRa (P19793 whole entry, chain 2 of 2): as the sequence (P19793 whole entry, chain 2 of 2) above
Sequence of PXR:RXRa (O75469 whole entry, chain 1 of 2): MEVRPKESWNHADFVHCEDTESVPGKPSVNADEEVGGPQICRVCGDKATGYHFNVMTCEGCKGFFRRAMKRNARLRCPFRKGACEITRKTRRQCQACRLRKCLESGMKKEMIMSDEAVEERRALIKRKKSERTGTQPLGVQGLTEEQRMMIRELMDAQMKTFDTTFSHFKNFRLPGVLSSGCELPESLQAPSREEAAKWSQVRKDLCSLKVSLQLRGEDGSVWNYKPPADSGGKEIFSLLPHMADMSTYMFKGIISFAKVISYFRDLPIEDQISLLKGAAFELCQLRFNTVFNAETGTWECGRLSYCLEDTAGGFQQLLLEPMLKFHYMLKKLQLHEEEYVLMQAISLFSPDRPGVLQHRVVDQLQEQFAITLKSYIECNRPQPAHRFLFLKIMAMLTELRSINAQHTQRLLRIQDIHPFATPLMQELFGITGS
Sequence of PXR:RXRa (P19793 whole entry, chain 2 of 2): as the sequence (P19793 whole entry, chain 2 of 2) above
Sequence of RXRa (P19793 whole entry): as the sequence (P19793 whole entry, chain 2 of 2) above
Sequence of VDR:RXRa (P11473 whole entry, chain 1 of 2): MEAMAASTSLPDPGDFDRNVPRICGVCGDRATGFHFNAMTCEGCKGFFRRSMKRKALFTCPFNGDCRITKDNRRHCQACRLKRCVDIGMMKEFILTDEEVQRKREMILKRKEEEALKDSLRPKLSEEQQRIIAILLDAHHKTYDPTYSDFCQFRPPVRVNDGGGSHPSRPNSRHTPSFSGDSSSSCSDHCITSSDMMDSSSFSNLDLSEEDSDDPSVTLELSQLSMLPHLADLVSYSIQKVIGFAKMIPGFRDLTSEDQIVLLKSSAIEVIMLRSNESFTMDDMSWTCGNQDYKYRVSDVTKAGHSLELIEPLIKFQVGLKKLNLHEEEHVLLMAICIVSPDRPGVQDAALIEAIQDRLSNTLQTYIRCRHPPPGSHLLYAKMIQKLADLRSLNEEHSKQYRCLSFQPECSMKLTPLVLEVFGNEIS
Sequence of VDR:RXRa (P19793 whole entry, chain 2 of 2): as the sequence (P19793 whole entry, chain 2 of 2) above
Sequence of PPARa:RXRa (Q07869 whole entry, chain 1 of 2): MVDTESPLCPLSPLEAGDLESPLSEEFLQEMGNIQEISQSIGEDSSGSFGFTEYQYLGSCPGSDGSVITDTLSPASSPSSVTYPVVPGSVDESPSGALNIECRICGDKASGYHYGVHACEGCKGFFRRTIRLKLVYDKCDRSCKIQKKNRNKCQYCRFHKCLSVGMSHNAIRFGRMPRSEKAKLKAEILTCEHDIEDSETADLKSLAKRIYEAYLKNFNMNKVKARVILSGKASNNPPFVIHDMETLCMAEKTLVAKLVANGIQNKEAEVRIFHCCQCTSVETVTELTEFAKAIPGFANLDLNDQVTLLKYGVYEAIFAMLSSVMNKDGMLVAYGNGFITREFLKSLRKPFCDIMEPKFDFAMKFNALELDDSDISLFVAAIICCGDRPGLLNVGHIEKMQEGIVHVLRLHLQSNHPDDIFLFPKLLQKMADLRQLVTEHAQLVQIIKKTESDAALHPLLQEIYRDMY
Sequence of PPARa:RXRa (P19793 whole entry, chain 2 of 2): as the sequence (P19793 whole entry, chain 2 of 2) above
Sequence of FXR:RXRa (Q96RI1 whole entry, chain 1 of 2): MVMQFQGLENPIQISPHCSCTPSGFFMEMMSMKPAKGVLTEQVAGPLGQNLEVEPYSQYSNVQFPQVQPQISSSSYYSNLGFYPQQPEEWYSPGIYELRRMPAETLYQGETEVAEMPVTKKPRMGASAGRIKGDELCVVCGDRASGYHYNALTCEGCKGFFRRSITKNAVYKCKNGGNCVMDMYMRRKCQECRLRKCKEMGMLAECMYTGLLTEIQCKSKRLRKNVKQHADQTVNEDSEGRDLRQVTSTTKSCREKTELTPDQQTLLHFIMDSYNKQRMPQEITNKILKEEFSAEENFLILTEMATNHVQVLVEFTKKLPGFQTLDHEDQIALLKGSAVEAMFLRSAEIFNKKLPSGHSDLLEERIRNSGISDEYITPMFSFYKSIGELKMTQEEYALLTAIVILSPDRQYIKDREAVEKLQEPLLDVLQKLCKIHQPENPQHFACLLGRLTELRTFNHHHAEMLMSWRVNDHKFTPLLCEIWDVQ
Sequence of FXR:RXRa (P19793 whole entry, chain 2 of 2): as the sequence (P19793 whole entry, chain 2 of 2) above

B1: NRC3_random_hg19_340_o1 (dsDNA)
DNA 1: GCGCCTTGTCCTTCTGCAGCTGCTGGTGCAGCCCAGGCGATTGACAGCGTAGAATGAAGG
DNA 2: CCTTCATTCTACGCTGTCAATCGCCTGGGCTGCACCAGCAGCTGCAGAAGGACAAGGCGC
With B1 the binding signal [1] was -0.91 PBM z-score against 500 random probes and the binding signal [2] was -0.68 PBM z-score against 500 random probes.

B2: NRC3_wobSeed95_DR3_G22C_o1 (dsDNA)
DNA 1: GCAGAACGAGGGCAATGAGTTCATAGCACGGGTGGCGCGATTGACAGCGTAGAATGAAGG
DNA 2: CCTTCATTCTACGCTGTCAATCGCGCCACCCGTGCTATGAACTCATTGCCCTCGTTCTGC
In the case of B2, the binding signal [3] is reported as 8.01 PBM z-score against 500 random probes and the binding signal [1] is reported as 7.08 PBM z-score against 500 random probes.

B3: NRC3_wobSeed141_DR5_C6G_o1 (dsDNA)
DNA 1: GCAGTGAAAGTTCAGGACGAGGTAACGTAAAGCACGGCGATTGACAGCGTAGAATGAAGG
DNA 2: CCTTCATTCTACGCTGTCAATCGCCGTGCTTTACGTTACCTCGTCCTGAACTTTCACTGC
With B3 the binding signal [1] was 3 PBM z-score against 500 random probes and the binding signal [4] was 3.27 PBM z-score against 500 random probes.

B4: NRC3_random_hg19_56_o1 (dsDNA)
DNA 1: GCTGTGCCTTCTGCACAAGGTAGGTCTACATCCACTGCGATTGACAGCGTAGAATGAAGG
DNA 2: CCTTCATTCTACGCTGTCAATCGCAGTGGATGTAGACCTACCTTGTGCAGAAGGCACAGC
With B4 the binding signal [1] was -0.54 PBM z-score against 500 random probes.

B5: NRC3_random_hg19_344_o1 (dsDNA)
DNA 1: GCCGGAAGAGAATTCTTGCCTGCCCACTGGTAGAATGCGATTGACAGCGTAGAATGAAGG
DNA 2: CCTTCATTCTACGCTGTCAATCGCATTCTACCAGTGGGCAGGCAAGAATTCTCTTCCGGC
For B5, the binding signal [5] was -0.83 PBM z-score against 500 random probes and the binding signal [1] was -0.71 PBM z-score against 500 random probes.

B6: NRC3_random_hg19_32_o1 (dsDNA)
DNA 1: GCTGTGTCAGACAGGCAAAGCACTTAAGATTTGTGAGCGATTGACAGCGTAGAATGAAGG
DNA 2: CCTTCATTCTACGCTGTCAATCGCTCACAAATCTTAAGTGCTTTGCCTGTCTGACACAGC
B6 was tested, and the binding signal [1] was -0.5 PBM z-score against 500 random probes.

B7: NRC3_wobSeed84_DR3_T8G_o1 (dsDNA)
DNA 1: GCCCGACGGGGGCAGAAAGGTTACCATACCATCCGGGCGATTGACAGCGTAGAATGAAGG
DNA 2: CCTTCATTCTACGCTGTCAATCGCCCGGATGGTATGGTAACCTTTCTGCCCCCGTCGGGC
For B7, the binding signal [1] was 3.49 PBM z-score against 500 random probes and the binding signal [6] was 3.11 PBM z-score against 500 random probes.

B8: NRC3_random_hg19_215_o1 (dsDNA)
DNA 1: GCTGTGGTCCCAAACACCTCAAGCATGACAATGCGTGCGATTGACAGCGTAGAATGAAGG
DNA 2: CCTTCATTCTACGCTGTCAATCGCACGCATTGTCATGCTTGAGGTGTTTGGGACCACAGC
In the case of B8, the binding signal [1] is reported as -0.46 PBM z-score against 500 random probes.

B9: NRC3_wobSeed89_DR3_G19A_o1 (dsDNA)
DNA 1: GCCTATGTAGGTTAAGGGAGTCATTCAGTTTGAAAGGCGATTGACAGCGTAGAATGAAGG
DNA 2: CCTTCATTCTACGCTGTCAATCGCCTTTCAAACTGAATGACTCCCTTAACCTACATAGGC
B9 was tested, and the binding signal [1] was 0.45 PBM z-score against 500 random probes, the binding signal [7] was 0.48 PBM z-score against 500 random probes and the binding signal [2] was 0.49 PBM z-score against 500 random probes.

B10: NRC3_wobSeed137_DR5_C18G_o1 (dsDNA)
DNA 1: GCATATGTAGGTTACATGCGGGTCATTCAGGCTATGGCGATTGACAGCGTAGAATGAAGG
DNA 2: CCTTCATTCTACGCTGTCAATCGCCATAGCCTGAATGACCCGCATGTAACCTACATATGC
For B10, the binding signal [1] was 3.01 PBM z-score against 500 random probes and the binding signal [2] was 3.89 PBM z-score against 500 random probes.

B11: NRC3_random_hg19_9_o1 (dsDNA)
DNA 1: GCAGGACTCCTCGTGAAGAGCAGGTGGGAGCGAGTCGCGATTGACAGCGTAGAATGAAGG
DNA 2: CCTTCATTCTACGCTGTCAATCGCGACTCGCTCCCACCTGCTCTTCACGAGGAGTCCTGC
With B11 the binding signal [1] was -0.76 PBM z-score against 500 random probes and the binding signal [2] was -0.88 PBM z-score against 500 random probes.

B12: NRC3_random_hg19_147_o1 (dsDNA)
DNA 1: GCCTCTTGCTCCCTATTGGTCTATTGCACTGCAGAGGCGATTGACAGCGTAGAATGAAGG
DNA 2: CCTTCATTCTACGCTGTCAATCGCCTCTGCAGTGCAATAGACCAATAGGGAGCAAGAGGC
B12 was tested, and the binding signal [1] was 0.25 PBM z-score against 500 random probes and the binding signal [4] was 0.48 PBM z-score against 500 random probes.

B13: NRC3_random_hg19_342_o1 (dsDNA)
DNA 1: GCATCGGGAGTGATGATAAGTAAGGCAAGCCCTGTTGCGATTGACAGCGTAGAATGAAGG
DNA 2: CCTTCATTCTACGCTGTCAATCGCAACAGGGCTTGCCTTACTTATCATCACTCCCGATGC
B13 was tested, and the binding signal [1] was -0.7 PBM z-score against 500 random probes.

B14: NRC3_random_hg19_219_o1 (dsDNA)
DNA 1: GCTATAGCTCACAACCTCATACCAGGAAGGGCTCAGGCGATTGACAGCGTAGAATGAAGG
DNA 2: CCTTCATTCTACGCTGTCAATCGCCTGAGCCCTTCCTGGTATGAGGTTGTGAGCTATAGC
With B14 the binding signal [1] was -0.27 PBM z-score against 500 random probes and the binding signal [6] was -0.28 PBM z-score against 500 random probes.

B15: NRC3_wobSeed37_DR1_A8G_o1 (dsDNA)
DNA 1: GCCGTCCGAGGTCAAAGGTCAGTGAAGAGATGACGGGCGATTGACAGCGTAGAATGAAGG
DNA 2: CCTTCATTCTACGCTGTCAATCGCCCGTCATCTCTTCACTGACCTTTGACCTCGGACGGC
In the case of B15, the binding signal [3] is reported as 7.2 PBM z-score against 500 random probes and the binding signal [1] is reported as 7.4 PBM z-score against 500 random probes.

B16: NRC3_random_hg19_134_o1 (dsDNA)
DNA 1: GCAGCTCCACTTCATGCCAGGCCTGGGCTAGAGGCTGCGATTGACAGCGTAGAATGAAGG
DNA 2: CCTTCATTCTACGCTGTCAATCGCAGCCTCTAGCCCAGGCCTGGCATGAAGTGGAGCTGC
B16 was tested, and the binding signal [1] was -0.78 PBM z-score against 500 random probes and the binding signal [7] was -0.54 PBM z-score against 500 random probes.

B17: NRC3_random_hg19_102_o1 (dsDNA)
DNA 1: GCCAGATGAAATGACCAGGCTGTTACCAGGGTCTATGCGATTGACAGCGTAGAATGAAGG
DNA 2: CCTTCATTCTACGCTGTCAATCGCATAGACCCTGGTAACAGCCTGGTCATTTCATCTGGC
B17 was tested, and the binding signal [5] was 0.48 PBM z-score against 500 random probes, the binding signal [1] was -0.16 PBM z-score against 500 random probes and the binding signal [2] was 0.17 PBM z-score against 500 random probes.

B18: NRC3_random_hg19_401_o1 (dsDNA)
DNA 1: GCTCTCCATCTTGAGTACCAGCCCTGTTCTTCCAGTGCGATTGACAGCGTAGAATGAAGG
DNA 2: CCTTCATTCTACGCTGTCAATCGCACTGGAAGAACAGGGCTGGTACTCAAGATGGAGAGC
B18 was tested, and the binding signal [1] was 0.41 PBM z-score against 500 random probes and the binding signal [2] was -0.32 PBM z-score against 500 random probes.

B19: NRC3_random_hg19_237_o1 (dsDNA)
DNA 1: GCTGCAGAGAGGCCACCAGCCAGCCCAGACCCATGCGCGATTGACAGCGTAGAATGAAGG
DNA 2: CCTTCATTCTACGCTGTCAATCGCGCATGGGTCTGGGCTGGCTGGTGGCCTCTCTGCAGC
B19 was tested, and the binding signal [5] was 0.12 PBM z-score against 500 random probes and the binding signal [1] was -0.57 PBM z-score against 500 random probes.

B20: NRC3_wobSeed113_DR4_T13C_o1 (dsDNA)
DNA 1: GCATATGTAGGTCAGCTGGGGTCATTCAGACTAGGCGCGATTGACAGCGTAGAATGAAGG
DNA 2: CCTTCATTCTACGCTGTCAATCGCGCCTAGTCTGAATGACCCCAGCTGACCTACATATGC
With B20 the binding signal [3] was 7.24 PBM z-score against 500 random probes and the binding signal [1] was 7.5 PBM z-score against 500 random probes.

B21: NRC3_wobSeed109_DR4_G21T_o1 (dsDNA)
DNA 1: GCCGTCCAAGGTCATAGGAGTTCAGTGAAGACAGATGCGATTGACAGCGTAGAATGAAGG
DNA 2: CCTTCATTCTACGCTGTCAATCGCATCTGTCTTCACTGAACTCCTATGACCTTGGACGGC
With B21 the binding signal [3] was 7.28 PBM z-score against 500 random probes and the binding signal [1] was 7.41 PBM z-score against 500 random probes.

B22: NRC3_wobSeed109_DR4_G17C_o1 (dsDNA)
DNA 1: B21 DNA 1 with G17C, T21G
DNA 2: B21 DNA 2 with A40C, C44G
B22 was tested, and the binding signal [3] was 7.31 PBM z-score against 500 random probes and the binding signal [1] was 7.4 PBM z-score against 500 random probes.

B23: NRC3_random_hg19_464_o1 (dsDNA)
DNA 1: GCAGAACCTCATTGCTTATCGCACAGATGAGATGCGGCGATTGACAGCGTAGAATGAAGG
DNA 2: CCTTCATTCTACGCTGTCAATCGCCGCATCTCATCTGTGCGATAAGCAATGAGGTTCTGC
B23 was tested, and the binding signal [5] was 0.3 PBM z-score against 500 random probes, the binding signal [1] was -0.05 PBM z-score against 500 random probes and the binding signal [4] was -0.25 PBM z-score against 500 random probes.

B24: NRC3_wobSeed85_DR3_C13A_o1 (dsDNA)
DNA 1: GCCGTCCAAGGTAAGAGAGGTCAGTGAATGCCGAGTGCGATTGACAGCGTAGAATGAAGG
DNA 2: CCTTCATTCTACGCTGTCAATCGCACTCGGCATTCACTGACCTCTCTTACCTTGGACGGC
In the case of B24, the binding signal [1] is reported as 3.25 PBM z-score against 500 random probes and the binding signal [6] is reported as 3.07 PBM z-score against 500 random probes.

B25: NRC3_random_hg19_432_o1 (dsDNA)
DNA 1: GCATGTCAATGGTAGTTTGATGGGAATAGTATTGAGGCGATTGACAGCGTAGAATGAAGG
DNA 2: CCTTCATTCTACGCTGTCAATCGCCTCAATACTATTCCCATCAAACTACCATTGACATGC
For B25, the binding signal [5] was 0.02 PBM z-score against 500 random probes and the binding signal [1] was -0.12 PBM z-score against 500 random probes.
